B1: Hammerhead Ribozyme (parent)
chain: ACCGGAUGUGCUUUCCGGUCUGAUGAGUCCGUGAGGACGAAACAG

Variants of: B1
Assay: self-cleavage, relative activity (ratio to wild type); higher = more cleavage; co-transcriptional

First: U12C G18C
Second: A23U U28A
The self-cleavage of the first is higher: 0.5 for the first, 0.375 for the second.

Going from G5C A41C to C38A G39C, the self-cleavage rises from 0.249 to 0.4.

Compared with G22U C43U, C2A U28C is higher in self-cleavage: 0.305 for the first, 0.417 for the second.

Compared with G18A C29G, U32C G33A is higher in self-cleavage: 0.537 for the first, 0.924 for the second.

Going from C3U U21A to U28C A42U, the self-cleavage falls from 0.747 to 0.325.

Going from C16U G27C to A40U G45C, the self-cleavage falls from 0.783 to 0.458.

Compared with U28G G33C, U14C G35C is lower in self-cleavage: 1.2 for the first, 0.499 for the second.

Compared with C20G G22U, U19C A34C is higher in self-cleavage: 0.343 for the first, 0.411 for the second.

Compared with G8C A41U, U13G C43G is lower in self-cleavage: 0.388 for the first, 0.335 for the second.

First: C15A U19A
Second: U12C C38A
The self-cleavage of the first is lower: 0.365 for the first, 0.678 for the second.

First: G5C U7C
Second: C29G U32G
The self-cleavage of the first is higher: 0.72 for the first, 0.553 for the second.

Compared with C20U C29A, G5A G36U is higher in self-cleavage: 0.296 for the first, 0.41 for the second.

First: G18U A44G
Second: C29G C43U
The self-cleavage of the first is higher: 0.942 for the first, 0.328 for the second.

Compared with U12C C30A, U9A A44U is lower in self-cleavage: 0.955 for the first, 0.557 for the second.

Going from C11G C38A to U32A G33C, the self-cleavage rises from 0.718 to 0.846.

Compared with U9C C11U, A26G C43U is lower in self-cleavage: 0.889 for the first, 0.285 for the second.

Compared with G5U A37G, U28G A42C is lower in self-cleavage: 0.46 for the first, 0.24 for the second.

Compared with C3A A44U, A1C U9C is higher in self-cleavage: 0.392 for the first, 0.394 for the second.

Compared with G18C G22A, G10C A42U is lower in self-cleavage: 0.342 for the first, 0.277 for the second.

First: C2A G33U
Second: A26G A40C
The self-cleavage of the first is higher: 0.858 for the first, 0.399 for the second.

Going from C3U A42G to A23C A44G, the self-cleavage rises from 0.393 to 0.896.

Compared with G4C C20U, A37C G45U is higher in self-cleavage: 0.441 for the first, 0.636 for the second.

Going from A6G C16G to U13C G27C, the self-cleavage rises from 0.537 to 0.985.

Compared with U24G A37G, C3U C16A is lower in self-cleavage: 0.659 for the first, 0.476 for the second.

Going from G25U C38A to G25U C38U, the self-cleavage rises from 0.328 to 0.37.

Going from G31A A44G to U28C C38A, the self-cleavage falls from 1.51 to 0.789.

Compared with U9A G45U, C16G C29A is lower in self-cleavage: 0.638 for the first, 0.39 for the second.

Going from G17A C29A to U13A C16A, the self-cleavage rises from 0.441 to 1.49.

First: A6U C11U
Second: U21A U24A
The self-cleavage of the first is lower: 0.607 for the first, 0.652 for the second.

Compared with C11A U19A, G17A G22A is lower in self-cleavage: 0.358 for the first, 0.315 for the second.

Going from U24A C30U to G5U A41U, the self-cleavage falls from 0.785 to 0.332.

Going from G5A C38A to C15U G45A, the self-cleavage rises from 0.65 to 0.842.

Compared with C3A U7G, C11U G27A is lower in self-cleavage: 0.7 for the first, 0.666 for the second.

Going from U13C A41G to G33C C38U, the self-cleavage rises from 0.394 to 1.12.

Compared with U14G G33U, A1U G35C is lower in self-cleavage: 0.678 for the first, 0.47 for the second.

Going from U19A G45C to G10A A26C, the self-cleavage rises from 0.405 to 0.666.

Compared with U19A A34U, C3U C29A is higher in self-cleavage: 0.388 for the first, 0.593 for the second.

First: C3U G17U
Second: C3U G17A
The self-cleavage of the first is lower: 0.866 for the first, 1.03 for the second.

Compared with U9A G36U, U19A G39A is lower in self-cleavage: 0.505 for the first, 0.297 for the second.

First: U12A C30G
Second: A26G G45A
The self-cleavage of the first is higher: 0.859 for the first, 0.3 for the second.

Going from G22C A37C to G10C C43U, the self-cleavage rises from 0.286 to 0.524.

Compared with U9A A41G, A23C G25A is lower in self-cleavage: 0.357 for the first, 0.331 for the second.

From the RNAGym collection of RNA variant scans (doi:10.7554/elife.80360)
